# Test results as given in patent US20220033784A1 (priority 2020, published 2022).
# Numbering of substitutions follows the chain as printed. Numbers in names are those of the source.
# T1: mouse high-affinity IL-2R (IL-2Rα/CD25 + IL-2Rβ + IL-2Rγ) on murine splenocytes (Treg cells, CD3+CD4+CD25+Foxp3+) (mouse) (UniProt P01590)
# T1 sequence 1: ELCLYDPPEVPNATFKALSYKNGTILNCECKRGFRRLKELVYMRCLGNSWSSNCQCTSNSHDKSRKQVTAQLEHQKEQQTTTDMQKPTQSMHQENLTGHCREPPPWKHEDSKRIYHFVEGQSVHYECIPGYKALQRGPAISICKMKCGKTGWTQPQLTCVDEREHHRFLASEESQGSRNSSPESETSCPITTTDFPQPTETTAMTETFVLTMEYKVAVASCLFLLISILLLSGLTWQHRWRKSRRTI
# T1 sequence 2: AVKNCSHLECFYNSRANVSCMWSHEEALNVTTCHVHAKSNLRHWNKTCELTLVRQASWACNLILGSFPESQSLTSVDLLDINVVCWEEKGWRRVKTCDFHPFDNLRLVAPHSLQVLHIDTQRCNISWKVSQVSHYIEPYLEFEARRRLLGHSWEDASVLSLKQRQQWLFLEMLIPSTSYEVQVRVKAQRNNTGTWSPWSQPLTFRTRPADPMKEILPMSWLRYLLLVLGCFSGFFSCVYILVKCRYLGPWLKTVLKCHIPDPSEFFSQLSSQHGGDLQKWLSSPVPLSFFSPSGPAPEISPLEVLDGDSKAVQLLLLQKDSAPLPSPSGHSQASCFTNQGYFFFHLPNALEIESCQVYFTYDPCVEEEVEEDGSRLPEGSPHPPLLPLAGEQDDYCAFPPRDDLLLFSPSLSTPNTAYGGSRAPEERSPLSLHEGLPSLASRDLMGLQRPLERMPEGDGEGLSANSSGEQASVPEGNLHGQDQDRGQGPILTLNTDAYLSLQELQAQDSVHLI
# T1 sequence 3: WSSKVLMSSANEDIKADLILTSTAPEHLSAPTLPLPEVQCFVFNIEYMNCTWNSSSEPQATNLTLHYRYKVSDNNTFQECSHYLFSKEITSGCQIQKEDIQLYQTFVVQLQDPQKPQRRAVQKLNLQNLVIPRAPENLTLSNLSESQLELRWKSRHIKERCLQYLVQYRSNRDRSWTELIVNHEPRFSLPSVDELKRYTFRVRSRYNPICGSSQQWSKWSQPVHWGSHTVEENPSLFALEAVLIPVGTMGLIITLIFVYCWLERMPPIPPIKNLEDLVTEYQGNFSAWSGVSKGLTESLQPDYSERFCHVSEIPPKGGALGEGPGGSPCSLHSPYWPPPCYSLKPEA
# T2: mouse intermediate-affinity IL-2R (IL-2Rβ + IL-2Rγ) on murine splenocytes (CD8+ T cells and NK cells) (mouse) (UniProt P16297)
# T2 sequence 1: T1 sequence 2
# T2 sequence 2: T1 sequence 3
# T3: hIL2Rα (CD25) (Homo sapiens, UniProt P01589)
# T3 construct: Purified soluble ligands were covalently coupled onto a CM5 sensor chip
# T3 sequence (P01589 22-240 limits assumed): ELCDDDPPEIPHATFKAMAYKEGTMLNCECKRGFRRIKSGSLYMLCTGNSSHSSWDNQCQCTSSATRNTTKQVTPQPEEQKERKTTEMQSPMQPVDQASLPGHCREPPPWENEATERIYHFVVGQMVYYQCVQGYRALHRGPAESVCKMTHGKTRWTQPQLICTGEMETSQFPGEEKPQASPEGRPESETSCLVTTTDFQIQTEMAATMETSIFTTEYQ
# T4: hILR2β (CD122) (Homo sapiens, UniProt P14784)
# T4 sequence (P14784 27-240 limits assumed): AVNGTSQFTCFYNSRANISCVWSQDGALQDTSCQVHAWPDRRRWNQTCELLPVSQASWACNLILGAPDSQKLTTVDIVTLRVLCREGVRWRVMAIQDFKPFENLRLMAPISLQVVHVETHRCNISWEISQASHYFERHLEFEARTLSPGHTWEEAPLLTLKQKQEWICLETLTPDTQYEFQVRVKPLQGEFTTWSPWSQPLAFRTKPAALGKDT
# B1: Fc-IL2-R38N:L40T-K43N:Y45T (protein)
# chain: APTSSSTKKTQLQLEHLLLDLQMILNGINNYKNPKLTNMTTFNFTMPKKATELKHLQCLEEELKPLEEVLNLAQSKNFHLRPRDLISNINVIVLELKGSETTFMCEYADETATIVEFLNRWITFCQSIISTLT
# B2: Fc-IL2-K43N:Y45T-L72N:Q74T (protein)
# chain: B1 chain with N38R, T40L, L72N, Q74T
# What was measured:
# [1] = biological target: T1, mouse high-affinity IL-2R (IL-2Rα/CD25 + IL-2Rβ + IL-2Rγ) on murine splenocytes (Treg cells, CD3+CD4+CD25+Foxp3+) (mouse)
# [2] = biological target: T2, mouse intermediate-affinity IL-2R (IL-2Rβ + IL-2Rγ) on murine splenocytes (CD8+ T cells and NK cells) (mouse)
# [3] = biological target: T2, mouse intermediate-affinity IL-2R (IL-2Rβ + IL-2Rγ) on murine splenocytes (CD8+ T cells and NK cells) (mouse); remark: listed apart in the source
# [4] = biological target: human intermediate-affinity IL-2 receptor complex, IL-2 CD122/CD132 (β/γ), on cells (human) (UniProt P14784)
# [5] = biological target: human high-affinity IL-2 receptor complex, IL-2 CD25/CD122/CD132 (α/β/γ), on cells (human) (UniProt P01589)
# hIL2Rα (CD25) = biological target: T3, hIL2Rα (CD25); assay: Biacore 8K surface plasmon resonance, hIL2Rα (CD25); format: binding; details: SPR, Table B
# Description: (§1) All experiments were performed on a Biacore 8K Surface Plasmon Resonance based biosensor (GE Healthcare). Purified soluble ligands were covalently coupled onto a CM5 sensor chip using an Amine Coupling Kit (GE Healthcare, Product #BR100050) following the manufacturer's recommendations. HBS-EP+ running buffer (10 mM HEPES pH 7.4, 0.15 M NaCl, 3 mM EDTA, 0.005% P-20), ranging in concentration was injected on all flow cells for 7 minutes at 20 μL/min. CD25 and CD122 was captured to surface densities of ˜20 and ˜500 RU, respectively. A non-derivatized flow cell was used as a reference surface. All flow cells were blocked with 100 mM ethylenediamine in 200 mM borate buffer pH 8.5 for 7 minutes at 10 μL/min.
# Protein interaction experiments were performed using HBS-EP+(pH 7.4) at 25° C. on each spot. Following capture of antigens, analyte (1.23, 3.7, 11.1, 33.3, 100, 300, and 900 nM concentrations of IL-2 variants) was injected at a flow rate of 50 μL/min in all flow cells for 50 seconds. After each analyte injection, dissociation was monitored for 5 minutes, followed by regeneration of all flow cells with a 20 second injection of 10 mM glycine (pH 2.1). Buffer cycles were collected for each sample for double-referencing purposes (double-referencing as described in Myszka, D. G., Improving biosensor analysis. J. Mol. Recognit. 12, 279-284 (1999)). […]
# hILR2β (CD122) = biological target: T4, hILR2β (CD122); assay: Biacore 8K surface plasmon resonance, hILR2β (CD122); format: binding; details: SPR; for Kd / hILR2β (CD122) kinetics ka / hILR2β (CD122) kinetics kd: HBS-EP+ pH 7.4, 25° C.; for binding affinity to human IL-2Rβ compared with the wild-type IL-2 Fc fusion: Table B
# Description: as §1
# Protein interaction experiments were performed using HBS-EP+(pH 7.4) at 25° C. on each spot. Following capture of antigens, analyte (1.23, 3.7, 11.1, 33.3, 100, 300, and 900 nM concentrations of IL-2 variants) was injected at a flow rate of 50 μL/min in all flow cells for 50 seconds. After each analyte injection, dissociation was monitored for 5 minutes, followed by regeneration of all flow cells with a 20 second injection of 10 mM glycine (pH 2.1). Buffer cycles were collected for each sample for double-referencing purposes (double-referencing as described in Myszka, D. G., Improving biosensor analysis. J. Mol. Recognit. 12, 279-284 (1999)). For kinetic analysis, the double-referenced sensorgrams were fit globally to a simple 1:1 Langmuir with mass transport binding model using Biacore 8K Evaluation Software version 1.1.1.7442. For steady-state affinity analysis, the double-referenced equilibrium binding responses were fit with a 1:1 Langmuir steady-state model using Biacore 8K Evaluation Software version 1.1.1.7442.
# [6] = tested on: HH cells (IL-2 CD122/CD132 (β/γ) receptor complex); assay: pSTAT5 ELISA in HH cells; format: cell-based; details: for relative selectivity for HH cells vs iTreg cells among the tested molecules: Table C; for Selectivity HH/iTreg: higher value = greater selectivity for HH cells; for EC50: pSTAT5 level 50% of maximum, InstantOne ELISA, read-out: EC50 HH T cell
# Description: (§2) The ability of the IL-2 variants to activate HH cells and iTregs was measured by monitoring relative changes in phosphorylated STAT5 (pSTAT5) in response to treatment of the cells with the IL-2 variants. pSTAT5 is known to be a downstream consequence of IL-2 signaling. HH T cells (ATCC CRL-2105) are a line of T cells that lack the alpha chain of the IL-2 receptor complex, but that contain the beta and gamma chains of the IL-2 receptor complex. iTreg cells were prepared from Fresh Leuko Paks obtained from […] Technologies (CAT #70500.1, Donor #D001003551).
# (§3) For IL-2 activation, the HH cells and iTreg cells were plated at 2*10e6 cells/well in 50 ul serum-free RPMI 1640 media (Gibco), and allowed to rest at 37° C. After resting, cells were treated the IL-2 molecules listed above, and cells were then pelleted by centrifugation.
# (§4) Following treatment with the IL-2 molecules, cell induction status was evaluated by the InstantOne ELISA pSTAT5 detection kit (Invitrogen).
# [7] = tested on: iTreg cells (IL-2 CD25/CD122/CD132 (α/β/γ) receptor complex); assay: pSTAT5 ELISA in iTreg cells; format: cell-based; details: pSTAT5 level 50% of maximum, InstantOne ELISA; read-out: EC50 iTreg cell
# Description: as §2, §3, §4
# CD8 T cells = assay: In vivo expansion of CD8 T cells (spleen immunophenotyping); set-up: species or system mice; details: 0.5, 1, or 2 mg/kg daily for 4 days SC; spleens day 3
# Description: (§5) Mice were randomized into groups to receive one of the molecules listed above or PBS control. The treatment groups were as follows: PBS; Fc-IL2; Fc-IL2v; […]; Immunophenotyping was conducted on day 3 after the first treatment (day 0) by collecting spleens from each group.
# NK cells = assay: In vivo expansion of NK cells (spleen immunophenotyping); set-up: species or system mice; details: 0.5, 1, or 2 mg/kg daily for 4 days SC; spleens day 3
# Description: as §5
# Treg cells = assay: In vivo expansion of Treg cells (spleen immunophenotyping); set-up: species or system mice; details: 0.5, 1, or 2 mg/kg daily for 4 days SC; spleens day 3
# Description: as §5
# B16F10 cells = assay: Tolerability and tumor growth inhibition in B16F10-bearing mice (Example 21); format: in vivo, mouse (C57/BL6); details: for surviving mice: 1 mg/kg SC on days 5, 6, 7, 8, groups of 15, day 12 post first treatment; for tolerability in mice compared with Fc-IL2 and Fc-IL2v: 1 mg/kg SC on days 5-8; for tumor growth inhibition in comparison to PBS control: B16F10 SC, 1 mg/kg SC on days 5-8, surviving mice
# Source text: On day 0 of the experiment, female C57/BL6 mice were subcutaneously implanted in the upper thigh with approximately 500,000 B16F10 cells, which had been freshly thawed from a single, low-passage vial (of 1*10^7 cells) and cultured for the minimum time required to establish sufficient cells for implantation.
# On day 5 of the experiment, mice were randomized into groups to receive one of the molecules listed above or control. […] Tumor volumes, body weight, and animal survival were tracked throughout the course of the experiment. Animals were sacrificed once tumors reached approximately 2000 mm^3 or 2 weeks post treatment.
Molecule,"EC50 (read off the curve), pSTAT5 MFI, murine splenocyte Treg cells [1] [ng/mL]","EC50 (read off the curve), pSTAT5 MFI, murine splenocyte CD8 T cells [2] [ng/mL]","EC50 (read off the curve), pSTAT5 MFI, murine splenocyte NK cells [3] [ng/mL]","EC50 (read off the curve), pSTAT5 MFI in NK cells of hPBMC [4] [nM]","EC50 (read off the curve), pSTAT5 MFI in Treg cells of hPBMC [5] [nM]",binding to IL-2Rα (hIL2Rα (CD25)),Kd (hILR2β (CD122)) [nM],hILR2β (CD122) kinetics ka (hILR2β (CD122)) [M⁻¹ s⁻¹],hILR2β (CD122) kinetics kd (hILR2β (CD122)) [s⁻¹],binding affinity to human IL-2Rβ compared with the wild-type IL-2 Fc fusion (hILR2β (CD122)),relative selectivity for HH cells vs iTreg cells among the tested molecules [6],Selectivity HH/iTreg [6],EC50 [6] [nM],EC50 [7] [nM],expansion of CD8 T cells in vivo (CD8 T cells),expansion of NK cells in vivo (NK cells),proliferation of Treg cells in vivo (Treg cells),surviving mice (B16F10 cells),tolerability in mice compared with Fc-IL2 and Fc-IL2v (B16F10 cells),tumor growth inhibition in comparison to PBS control (B16F10 cells)
"human IL-2 variant hIL-2v (F42A, Y45A, L72G), secreted by virus-infected HeLa cells (from UniProt P60568 21-153) (ligand)",70,100,20,,,,,,,,,,,,,,,,,
Fc-IL2-R38N:L40T-T41N:K43T (from UniProt P01857-1) (Fc fusion),,,,6,20,,,,,,,,,,,,,,,
B1,,,,,,do not have measurable binding to IL-2Rα,3540,82600,0.292,retain similar binding affinity,greatest relative selectivity,6.47 × 10^−2,218,14.1,promoted the expansion,promoted the expansion,minimal effects on the proliferation of Treg cells,11/15,better tolerated,significant tumor growth inhibition
B2,,,,,,do not have measurable binding to IL-2Rα,2620,89900,0.235,retain similar binding affinity,greatest relative selectivity,6.89 × 10^−2,65.2,4.49,promoted the expansion,promoted the expansion,minimal effects on the proliferation of Treg cells,14/15,better tolerated,significant tumor growth inhibition
